Reference: patent US20250312376A1 (FLAGSHIP PIONEERING INNOVATIONS VI, published 2025)

Molecular target: T1, BCMA on BCMA-positive tumor cell lines (H929, RPMI-8226) (UniProt Q02223 1-184, limits assumed)
T1 sequence (looked up): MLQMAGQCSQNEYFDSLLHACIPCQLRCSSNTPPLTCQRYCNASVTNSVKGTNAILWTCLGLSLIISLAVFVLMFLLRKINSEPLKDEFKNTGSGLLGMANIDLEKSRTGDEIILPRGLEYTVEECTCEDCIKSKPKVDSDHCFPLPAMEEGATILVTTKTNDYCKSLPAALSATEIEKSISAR
Assay: cell-based or functional assay

B1: BCMA-CAR fusion polypeptide (receptor)
chain: QVQLVQSGAEVKKPGASVKVSCKASGYSFPDYYINWVRQAPGQGLEWMGWIYFASGNSEYNQKFTGRVTMTRDTSSSTAYMELSSLRSEDTAVYFCASLYDYDWYFDVWGQGTMVTVSSGGGGSGGGGSGGGGSDIVMTQTPLSLSVTPGEPASISCKSSQSLVHSNGNTYLHWYLQKPGQSPQLLIYKVSNRFSGVPDRFSGSGSGADFTLKISRVEAEDVGVYYCAETSHVPWTFGQGTKLEIKTTTPAPRPPTPAPTIASQPLSLRPEACRPAAGGAVHTRGLDFACDIYIWAPLAGTCGVLLLSLVITLYCRSKRSRLLHSDYMNMTPRRPGPTRKHYQPYAPPRDFAAYRSRVKFSRSADAPAYQQGQNQLYNELNLGRREEYDVLDKRRGRDPEMGGKPRRKNPQEGLYNELQKDKMAEAYSEIGMKGERRRGKGHDGLYQGLSTATKDTYDALHMQALPPR
- % killing at a 0.625 ratio of effector T cells to tumor cells (one donor): > 50%
